Test results taken from the Immune Epitope Database (IEDB).

Columns and labels:
HLA-B*44:02 = assay: IEDB peptide-MHC binding, purified MHC/direct/fluorescence; filed as Kd, often an IC50 or EC50 that approximates it; ≥ and ≤ were set here for values at or beyond the usual limits of such assays; conditions: source organism: Ebola virus - Gabon (1994-1997)
HLA-A*01:01 [1] = assay: as above; conditions: source organism: Ebola virus - Gabon (1994-1997)
HLA-A*29:02 [2] = assay: as above; conditions: source organism: Ebola virus - Gabon (1994-1997)
HLA-A*03:01 [3] = assay: as above; conditions: source organism: Ebola virus - Gabon (1994-1997)
HLA-B*46:01 [4] = assay: as above; conditions: source organism: Ebola virus - Gabon (1994-1997)
HLA-B*58:01 [5] = assay: as above; conditions: source organism: Ebola virus - Gabon (1994-1997)
HLA-A*11:01 [6] = assay: as above; conditions: source organism: Ebola virus - Gabon (1994-1997)
HLA-B*27:05 = assay: as above; conditions: source organism: Ebola virus - Gabon (1994-1997)
HLA-A*69:01 = assay: as above; conditions: source organism: Ebola virus - Gabon (1994-1997)
HLA-B*57:01 [7] = assay: as above; conditions: source organism: Ebola virus - Gabon (1994-1997)
HLA-A*02:01 [8] = assay: as above; conditions: source organism: Ebola virus - Gabon (1994-1997)
HLA-B*39:01 [9] = assay: as above; conditions: source organism: Ebola virus - Gabon (1994-1997)
HLA-A*68:02 [10] = assay: as above; conditions: source organism: Zaire ebolavirus
HLA-B*40:01 = assay: as above; conditions: source organism: Ebola virus - Gabon (1994-1997)
HLA-A*24:03 [11] = assay: as above; conditions: source organism: Zaire ebolavirus
HLA-A*02:12 [12] = assay: as above; conditions: source organism: Zaire ebolavirus
HLA-B*18:01 [13] = assay: as above; conditions: source organism: Ebola virus - Gabon (1994-1997)
HLA-B*07:02 = assay: as above; conditions: source organism: Ebola virus - Gabon (1994-1997)
HLA-A*23:01 [14] = assay: as above; conditions: source organism: Zaire ebolavirus
HLA-B*15:01 [15] = assay: as above; conditions: source organism: Ebola virus - Gabon (1994-1997)
HLA-B*15:17 = assay: IEDB peptide-MHC binding, purified MHC/competitive/fluorescence; filed as Kd, often an IC50 or EC50 that approximates it; ≥ and ≤ were set here for values at or beyond the usual limits of such assays
HLA-A*26:01 = assay: as above
HLA-B*51:01 = assay: as above
HLA-B*27:03 = assay: as above
HLA-A*29:02 [16] = assay: as above
HLA-A*03:01 [17] = assay: as above
HLA-B*46:01 [18] = assay: as above
HLA-A*02:19 = assay: as above
HLA-B*57:01 [19] = assay: as above
HLA-A*02:01 [20] = assay: as above
HLA-B*39:01 [21] = assay: as above
HLA-A*24:03 [22] = assay: as above
HLA-A*02:12 [23] = assay: as above; conditions: source organism: Listeria welshimeri serovar 6b str. SLCC5334
HLA-B*18:01 [24] = assay: as above
HLA-A*23:01 [25] = assay: as above
HLA-B*15:01 [26] = assay: as above
HLA-A*01:01 [27] = assay: IEDB peptide-MHC binding, purified MHC/competitive/fluorescence; ≥ and ≤ were set here for values at or beyond the usual limits of such assays
HLA-A*11:01 [28] = assay: as above; conditions: source organism: Vaccinia virus
HLA-B*58:01 [29] = assay: IEDB peptide-MHC binding, purified MHC/competitive/radioactivity; filed as Kd, often an IC50 or EC50 that approximates it; ≥ and ≤ were set here for values at or beyond the usual limits of such assays
HLA-B*57:01 [30] = assay: as above
HLA-A*68:02 [31] = assay: as above; conditions: source organism: Dengue virus 4 Philippines/H241/1956
HLA-A*32:01 = assay: as above
HLA-B*53:01 = assay: as above; conditions: source organism: Dengue virus 4 Philippines/H241/1956
HLA-A*01:01 [32] = assay: as above; conditions: source organism: Dengue virus 2 Jamaica/1409/1983
HLA-A*02:01 [33] = assay: IEDB peptide-MHC binding, purified MHC/competitive/fluorescence; ≥ and ≤ were set here for values at or beyond the usual limits of such assays; conditions: source organism: Sudan ebolavirus
[34] = source organism: Zaire ebolavirus
[35] = source organism: Listeria welshimeri serovar 6b str. SLCC5334
[36] = source organism: Dengue virus 4 Philippines/H241/1956
[37] = source organism: Shigella boydii CDC 3083-94
[38] = source organism: Dengue virus 3 Martinique/1243/1999
[39] = source organism: Dengue virus 2 Jamaica/1409/1983

AKATGRYNL
Kd (HLA-B*44:02): ≥ 20 µM | Kd (HLA-A*01:01 [1]): ≥ 20 µM | Kd (HLA-A*29:02 [2]): ≥ 20 µM | Kd (HLA-A*03:01 [3]): ≥ 20 µM | Kd (HLA-B*46:01 [4]): ≥ 20 µM | Kd (HLA-B*58:01 [5]): ≥ 20 µM | Kd (HLA-A*11:01 [6]): ≥ 20 µM | Kd (HLA-B*27:05): ≥ 20 µM | Kd (HLA-A*69:01): ≥ 20 µM | Kd (HLA-B*57:01 [7]): ≥ 20 µM | Kd (HLA-A*02:01 [8]): ≥ 20 µM | Kd (HLA-B*39:01 [9]): 0.78 µM | Kd (HLA-A*68:02 [10]): ≥ 20 µM | Kd (HLA-B*40:01): ≥ 20 µM | Kd (HLA-A*24:03 [11]): ≥ 20 µM | Kd (HLA-A*02:12 [12]): ≥ 20 µM | Kd (HLA-B*18:01 [13]): ≥ 20 µM | Kd (HLA-B*07:02): ≥ 20 µM | Kd (HLA-A*23:01 [14]): ≥ 20 µM | Kd (HLA-B*15:01 [15]): ≥ 20 µM | Kd (HLA-B*15:17; [34]): ≥ 20 µM | Kd (HLA-A*26:01; [34]): ≥ 20 µM | Kd (HLA-B*51:01; [34]): ≥ 20 µM | Kd (HLA-B*27:03; [34]): ≥ 20 µM

ELYENKPDV
Kd (HLA-A*29:02 [16]; [35]): ≥ 20 µM | Kd (HLA-A*03:01 [17]; [35]): ≥ 20 µM | Kd (HLA-B*46:01 [18]; [35]): ≥ 20 µM | Kd (HLA-A*02:19; [35]): 0.303 µM | Kd (HLA-A*26:01; [35]): ≥ 20 µM | Kd (HLA-B*57:01 [19]; [35]): ≥ 20 µM | Kd (HLA-A*02:01 [20]; [35]): 0.515 µM | Kd (HLA-B*39:01 [21]; [35]): ≥ 20 µM | Kd (HLA-B*51:01; [35]): ≥ 20 µM | Kd (HLA-B*27:03; [35]): ≥ 20 µM | Kd (HLA-A*24:03 [22]; [35]): ≥ 20 µM | Kd (HLA-A*02:12 [23]): ≥ 20 µM | Kd (HLA-B*18:01 [24]; [35]): ≥ 20 µM | Kd (HLA-A*23:01 [25]; [35]): ≥ 20 µM | Kd (HLA-B*15:01 [26]; [35]): ≥ 20 µM

GTEKEFLRY
IC50 (HLA-A*01:01 [27]; source organism: Vaccinia virus): 6.64 µM | IC50 (HLA-A*11:01 [28]): 11.5 µM

IGLSSRATW
Kd (HLA-B*58:01 [29]; [36]): 0.00663 µM | Kd (HLA-B*57:01 [30]; [36]): 0.0481 µM

LASMAICSAV
Kd (HLA-B*58:01 [29]; [36]): 0.586 µM | Kd (HLA-B*57:01 [30]; [36]): ≥ 21.9 µM | Kd (HLA-A*68:02 [31]): 0.0262 µM

MAMTGLPQA
Kd (HLA-B*15:17; [37]): ≥ 20 µM | Kd (HLA-A*29:02 [16]; [37]): ≥ 20 µM | Kd (HLA-A*03:01 [17]; [37]): ≥ 20 µM | Kd (HLA-B*46:01 [18]; [37]): ≥ 20 µM | Kd (HLA-A*02:19; [37]): 0.0003 µM | Kd (HLA-A*26:01; [37]): ≥ 20 µM | Kd (HLA-B*57:01 [19]; [37]): ≥ 20 µM | Kd (HLA-A*02:01 [20]; [37]): 0.0008 µM | Kd (HLA-B*39:01 [21]; [37]): ≥ 20 µM | Kd (HLA-B*27:03; [37]): ≥ 20 µM | Kd (HLA-A*24:03 [22]; [37]): ≥ 20 µM | Kd (HLA-B*18:01 [24]; [37]): ≥ 20 µM | Kd (HLA-A*23:01 [25]; [37]): ≥ 20 µM | Kd (HLA-B*15:01 [26]; [37]): ≥ 20 µM

MVMTTTANW
Kd (HLA-B*58:01 [29]; [36]): 0.0162 µM | Kd (HLA-B*57:01 [30]; [36]): 0.011 µM | Kd (HLA-A*32:01; [36]): 0.0263 µM | Kd (HLA-B*53:01): 0.00345 µM

NSSFIIDGPN
Kd (HLA-B*58:01 [29]; [38]): 0.00543 µM | Kd (HLA-B*57:01 [30]; [38]): 0.142 µM

RVWIQENPW
Kd (HLA-B*58:01 [29]; [39]): 0.0034 µM | Kd (HLA-B*57:01 [30]; [39]): 0.00787 µM | Kd (HLA-A*32:01; [39]): 0.0224 µM

STSLSVSLVL
Kd (HLA-A*01:01 [32]): 12 µM | Kd (HLA-B*57:01 [30]; [39]): 0.667 µM

TASGKLITEW
Kd (HLA-B*58:01 [29]; [39]): 0.163 µM | Kd (HLA-B*57:01 [30]; [39]): 0.0497 µM

VTEIDQLVC
IC50 (HLA-A*01:01 [27]; source organism: Sudan ebolavirus): 34.2 µM | IC50 (HLA-A*02:01 [33]): ≥ 322 µM
